Experimental data reported in patent publication US20260028391A1.
Residue numbers refer to the chain shown, from its start. Numbers in names are those of the source.

B1: RSD5-FR-GL-rIgG1 (antibody, V domains shown)
VH: QVQLVESGGGVVQPGRSLRLSCAASGFAFNNFAMHWVRQAPGKGLEWVAVVSYDGTSPYYADSVKGRFTISRDNSKNTLYLQMNSLRAEDTAVYYCARGLGSGSYSWIGYFYAMDVWGQGTTVTVSS
VL: QSALTQPASVSGSPGQSITISCTGTSSDVGGYVYVSWYQQHPGKAPKLMIYDVSNRPSGVSNRFSGSKSGNTASLTISGLQAEDEADYYCISYTDRNTVVFGGGTKLTVL
B2: MPK195 (antibody, V domains shown)
VH: EVQLVQSGAAVKKPGESLKISCRGSGYSFINYWIGWVRQMPGKGLEWMGVIYPFDSDTQYSPSFQGHVTISADKSINTAYLQWDSLKAADTAIYYCARFTFGIALSTADVYGEGQAFDIWGPGTMVTVSS
VL: EIVLTQSPATLSVSPGERATLSCRASQSVAGKIAWYQQRPGQAPRLLIYGASTRATGVPARFSGSGSETEFTLTISSLQSEDFAVYYCQQYSNWPQAFGPGTRLDMK
B3: MPK191 (antibody, V domains shown)
VH: EVQLVQSGAEVKKPGESLKISCKGSGYSFINYWIGWVRQMPGKGLEWMGIIYPFDSDTKYSPSFQGHVTISADKSINTAYVQWSGLKASDTAMYYCARFTFGIAVVAGDVTGEGHAFDVWGQGTMVTVSS
VL: B2 VL with L4M, E17D, K32N, I33L, A43T, T56S, S92D, Q96H, P100Q, M106I
B4: MPK77-rIgG1-LS (antibody, V domains shown)
VH: EVQLVESGGGLVKPGGSLRLSCAASKSFSGYYMIWIRQAPGRGLEWIADISGSSTYTDYADSVKGRFTISRDNTRNTLYLQMNSLRPEDTAVYYCATEQVPSPGPFDLWGPGTLVTVSS
VL: QSVLTQPPSVSGAPGQRVIISCTGSSSNIGAGYDVHWYQQFPGTSPKLLIYRNTNRPSGVPDRFSGFKSGASAALAITGLQAEDEADYYCQSYDRSLSGWAFGGGTKVTVL
B5: MPH12-rIgG1-LS (antibody, V domains shown)
VH: QVQLVESGGGLVKPGGSLRLSCVASGFTFSGFYMKWIRQAPGKGLEWVSSISASGSYTNYADSVEGRFTVSRDNAKNSLFLLMSSLRAEDTAVYYCARGDSYCGASACHGEFFHKWGQGTLVTVSS
VL: QSVLTQPPSVSGAPGQRVTISCTGSDSNIGADFDVHWYQQLPGTAPKLLIYGNINRPSGVPDRFSGSRSGTSAFLAITRLQAEDEADYYCQSYDRSLHYVFGAGTKVTVL
B6: MPH12 VH / MPH12 VL-FRGL-D25E (antibody, V domains shown)
VH: B5 VH
VL: B5 VL with D26E, R68K, F74S, R79G, A103T
B7: MPH12 VH-FRGL-S63A / MPH12 VL-FRGL-D25E (antibody, V domains shown)
VH: B5 VH with V23A, S63A, V70I, F80Y, L82Q, S84N
VL: B5 VL with D26E, R68K, F74S, R79G, A103T
B8: MPH12 VH-FRGL / MPH12 VL-FRGL-D25E (antibody, V domains shown)
VH: B5 VH with V23A, V70I, F80Y, L82Q, S84N
VL: B5 VL with D26E, R68K, F74S, R79G, A103T
B9: MPH12-v17 (VH-FRGL-D62E/VL-D25S) (antibody, V domains shown)
VH: B5 VH with V23A, D62E, V70I, F80Y, L82Q, S84N
VL: B5 VL with D26S
B10: MPH12-v29 (VH-FRGL-D62E/VL-S26A) (antibody, V domains shown)
VH: B5 VH with V23A, D62E, V70I, F80Y, L82Q, S84N
VL: B5 VL with S27A
B11: MPH12-v35 (VH-FRGL-D62E/VL-FRGL-D25S) (antibody, V domains shown)
VH: B5 VH with V23A, D62E, V70I, F80Y, L82Q, S84N
VL: B5 VL with D26S, R68K, F74S, R79G, A103T
B12: MPH12-v34 (VH-FRGL-S63A/VL-FRGL-D25S) (antibody, V domains shown)
VH: B5 VH with V23A, S63A, V70I, F80Y, L82Q, S84N
VL: B5 VL with D26S, R68K, F74S, R79G, A103T
B13: MPK190-v1.1-rIgG1m17,1-LS (antibody, V domains shown)
VH: QVQLVESGGGLVKPGGSLTLSCAASGFSISGYGMNWVRQAPGRGLEWVASISASSTYIYYADSMKGRFTISRDNGKTSLYLQMKSLRAEDTAVYYCARAPIEPPYFDLWGRGTLVTVSS
VL: QSVLTQPPSVSGAPGQRVTISCTGSNSNIGAGYDVHWYQHLPGKAPKVLIYGNNNRPSVVPDRFSGSNSGASASLAISGLQAEDEADYFCQSYDRRLSGPIFGGGTKLTVL
B14: MPK104-v1.1-rIgG1m17,1-LS (antibody, V domains shown)
VH: QVQLVESGGGLVKPGGSLRLSCAASGFTIDGYGMNWVRQAPGKGLEWVSSISASSNYIYYADSMKGRFTISRDNGKNSLYLQMHSLRVEDTGVYYCARAPLEPPYFDLWGRGTLVTVSS
VL: QSVLTQPPSVSGAPGQRVTISCSGGSSNIGAGYDVHWYQQVPGKGPKVLIYGNNNRPSGVPDRFSGSNFGASASLAITGLQADDEADYFCQSYDRRLGGPVFGGGTKLTVL
B15: MPK104-rIgG1-LS (antibody, V domains shown)
VH: B14 VH with Q1E
VL: B14 VL
B16: MPK104-v1.3-rIgG1m17,1-LS (antibody, V domains shown)
VH: B14 VH
VL: B14 VL with N54T, D83E

Legend:
[1] = biological target: fusion glycoprotein (F) of the MPV used in the neutralization of Table 34 (metapneumovirus); assay: cell-based or functional assay
[2] = biological target: fusion glycoprotein of the RSV used in the neutralization assay of Example 1 (respiratory syncytial virus (strain not stated)); assay: cell-based or functional assay
[3] = biological target: RSV fusion glycoprotein (RSV-F) of the RSV used in the neutralization of Table 33 (respiratory syncytial virus, strain not stated); assay: cell-based or functional assay
[4] = biological target: RSV fusion glycoprotein (RSV-F) (respiratory syncytial virus (strain not stated)); assay: SPR; sensors loaded with RSV-F, mAb in solution (Experiment 2)
[5] = biological target: biot-MPV-F wt (metapneumovirus (MPV)); assay: BLI, SA sensor loaded with biot-MPV-F wt, mAb 5 ug/ml, 4 min association, 6 min dissociation
[6] = biological target: biot-RSV-F wt (respiratory syncytial virus (RSV)); assay: BLI, SA sensor loaded with biot-RSV-F wt, mAb 5 ug/ml, 4 min association, 6 min dissociation
[7] = biological target: biot-RSV-F wt (respiratory syncytial virus (RSV)); assay: BLI (Octet), biotinylated F on SA sensors, mAb 5 µg/ml
[8] = biological target: biot-MPV-F D280N (metapneumovirus (MPV)); assay: as above
[9] = biological target: biot-MPV-F wt (metapneumovirus (MPV)); assay: as above
[10] = biological target: biot-MPV-F D280N (metapneumovirus (MPV)); assay: BLI, SA sensor loaded with biot-MPV-F D280N (sheet title 'MPV-G D280N'), mAb 5 ug/ml, 4 min association, 6 min dissociation
[11] = biological target: DS-Cav1 RSV F (respiratory syncytial virus); assay: ELISA on DS-Cav1 RSV F
[12] = biological target: MPV fusion glycoprotein with the D280N mutation (MPV-F N280) (metapneumovirus); assay: biolayer interferometry (BLI), rIgG1 with M428L/N434S
[13] = biological target: MPV fusion glycoprotein without the D280N mutation (MPV-F D280) (metapneumovirus); assay: as above
[14] = biological target: MPV F WT expressed on transfected Expi293F cells (metapneumovirus (MPV)); assay: flow cytometry, transfected Expi293F cells, fixed and permeabilised
[15] = biological target: MPV F D280N mutant expressed on transfected Expi293F cells (metapneumovirus (MPV)); assay: as above
[16] = biological target: biot-MPV-F D280N (metapneumovirus (MPV)); assay: BLI, SA sensor loaded with biot-MPV-F D280N (sheet title 'MPV-G D280N'; head of the value column printed 'MPV-F', not 'KD (M)'), mAb 5 ug/ml, 4 min association, 6 min dissociation

| Binder | IC50 (ng/mL) in neutralization against MPV [1] [ng/mL] | IC50 (ng/mL) in neutralization against RSV [3] [ng/mL] | Kd [5] [nM] | Kd [8] [nM] | Kd [9] [nM] | EC50 [11] [ng/mL] | other results |
| --- | --- | --- | --- | --- | --- | --- | --- |
| B1 | > 2000 | 1.2 | – | – | – | – | RSV Neutralization - IC50 [2]: 5.41 ng/mL |
| B2 | – | – | – | – | – | – | RSV Neutralization - IC50 [2]: 1.1 ng/mL; Kd [4]: 0.001 nM |
| B3 | – | – | – | – | – | – | RSV Neutralization - IC50 [2]: 1.2 ng/mL; Kd [4]: 0.029 nM |
| B4 | – | – | < 0.001 | 0.394 | < 0.001 | – | Kd [6]: < 0.001 nM; Kd [7]: 0.00228 nM; Kd [10]: 0.406 nM |
| B5 | 5.26 | 12.9 | – | 1.01 | < 0.001 | – | Kd [7]: 1.2 nM |
| B6 | – | – | – | – | – | 30.6 | – |
| B7 | – | – | – | – | – | 34.7 | – |
| B8 | – | – | – | – | – | 47.2 | – |
| B9 | – | – | – | – | – | 25.1 | Kd [12]: 0.55 nM; Kd [13]: 0.028 nM |
| B10 | – | – | – | – | – | 42.5 | Kd [12]: 0.64 nM; Kd [13]: 0.027 nM |
| B11 | – | – | – | – | – | – | Kd [12]: 0.78 nM; Kd [13]: 0.028 nM |
| B12 | – | – | – | – | – | – | Kd [12]: 0.82 nM; Kd [13]: 0.039 nM |
| B13 | 0.705 | 5.8 | < 0.001 | 0.362 | < 0.001 | – | Binding (FACS) relative to parental mAb MPK190-v1.1 [14]: 1; Binding (FACS) relative to parental mAb MPK190-v1.1 [15]: 1; Kd [10]: 0.402 nM |
| B14 | 1.36 | 6.61 | < 0.001 | – | – | – | Kd [16]: 0.497 nM; Binding (FACS) relative to parental mAb MPK104-v1.1 [14]: 1; Binding (FACS) relative to parental mAb MPK104-v1.1 [15]: 1 |
| B15 | – | – | < 0.001 | 0.391 | < 0.001 | – | Kd [16]: 0.472 nM; Kd [6]: 0.0373 nM; Kd [7]: 0.306 nM |
| B16 | 1.16 | 4.8 | < 0.001 | 0.37 | < 0.001 | – | Kd [16]: 0.49 nM; Binding (FACS) relative to parental mAb MPK104-v1.1 [14]: 1; Binding (FACS) relative to parental mAb MPK104-v1.1 [15]: 1.1 |
